Test results taken from US20200040059A1.

Molecular target: PD-1 (human)
Assay: cell-based or functional assay

Chain of Full length ECD of PD-L2 (ligand) (Q9BQ51 20-220): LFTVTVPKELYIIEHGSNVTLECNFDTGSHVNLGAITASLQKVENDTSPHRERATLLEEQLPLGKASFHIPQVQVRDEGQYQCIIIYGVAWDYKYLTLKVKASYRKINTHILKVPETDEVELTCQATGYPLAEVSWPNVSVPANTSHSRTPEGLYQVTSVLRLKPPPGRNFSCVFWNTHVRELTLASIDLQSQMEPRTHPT

Substance | Fold increase over wildtype PD-L2 IgV-Fc, MLR IFN gamma [fold] | IFN gamma levels pg/mL, MLR [pg/mL]
PD-L2 IgV-Fc I13V, H15Q, T47A, Q72H, R76G, I86T (Fc fusion) | 0.79 | 1090
PD-L2 IgV-Fc S67L, I85F (Fc fusion) | 0.93 | 1280
PD-L2 IgV-Fc N32D, S67L, V89D (Fc fusion) | 0.87 | 1190
PD-L2 IgV-Fc E44D, S67L, Q72H, Q82R, V89D (Fc fusion) | 0.93 | 1280
PD-L2 IgV-Fc I13V, H15Q, E44D, V89D (Fc fusion) | 1.01 | 1380
PD-L2 IgV-Fc H15Q, T47A, K65R, S67L, Q82R, V89D (Fc fusion) | 0.97 | 1340
PD-L2 IgV-Fc G28V, Q72H, R76G, I86T (Fc fusion) | 1.29 | 1780
PD-L2 IgV-Fc I13V, H15Q, L33F, T47A, Q82R, V89D (Fc fusion) | 1.07 | 1470
PD-L2 IgV-Fc E44D, V89D, W91R (Fc fusion) | 1.13 | 1560
PD-L2 IgV-Fc H15Q, T47A, S67L, Q82R, V89D (Fc fusion) | 0.87 | 1200
PD-L2 IgV-Fc S39I, V89D (Fc fusion) | 0.95 | 1310
PD-L2 IgV-Fc H15Q, T47A, Q82R (Fc fusion) | 0.96 | 1320
PD-L2 IgV-Fc H15Q, E44D, R76G, I85F (Fc fusion) | 1.01 | 1390
Wild Type PD-L2 IgV (Fc fusion) | – | 1380
PD-L2 IgV-Fc I13V, H15Q, T37A, E44D, S48C, S67L, Q82R, V89D (Fc fusion) | 1.27 | 1750
PD-L2 IgV-Fc S67L, V89D (Fc fusion) | 0.89 | 1230
PD-L2 IgV-Fc I13V, E44D, Q82R, V89D (Fc fusion) | 0.73 | 1010
PD-L2 IgV-Fc H15Q, S39I, I86T (Fc fusion) | 1.03 | 1420
PD-L2 IgV-Fc H15Q, L33P, T47A, S67L, P71S, V89D (Fc fusion) | 0.94 | 1290
PD-L2 IgV-Fc E44D (Fc fusion) | 1.09 | 1500
PD-L2 IgV-Fc H15Q, T47A, S67L, R76G, Q82R, V89D (Fc fusion) | 0.8 | 1100
PD-L2 IgV-Fc I13V, H15Q, R76G, D77N, Q82R, V89D (Fc fusion) | 0.86 | 1190
PD-L2 IgV-Fc N24D (Fc fusion) | 1.44 | 1980

Substance | Fold increase over wildtype PD-L2 IgV-Fc, MLR IFN gamma [fold] | IFN gamma levels pg/mL, MLR [pg/mL]
PD-L2 IgV-Fc H15Q, R76G, I85F (SEQ ID NO 1500) (Fc fusion) | 1.25 | 1730
PD-L2 IgV-Fc I13V, H15Q, Q82R (Fc fusion) | 1.04 | 1430
PD-L2 IgV-Fc I13V, H15Q, T47A, Q82R, V89D (SEQ ID NO 1545) (Fc fusion) | 1.26 | 1740
PD-L2 IgV-Fc I13V, S67L, Q82R, V89D (Fc fusion) | 1 | 1370
PD-L2 IgV-Fc I13V, H15Q, I36V, T47A, S67L, V89D (Fc fusion) | 0.99 | 1360
PD-L2 IgV-Fc H15Q, Q72H, V89D (Fc fusion) | 0.92 | 1270
PD-L2 IgV-Fc H15Q, N32D, S67L, V89D (Fc fusion) | 0.93 | 1290
PD-L2 IgV-Fc I13V, H15Q, T47A, Q82R (Fc fusion) | 1.24 | 1700
PD-L2 IgV-Fc I13V, H15Q, V31A, N45S, Q82R, V89D (Fc fusion) | 1.25 | 1720
PD-L2 IgV-Fc I13V, H15Q, T47A, R76G, V89D (Fc fusion) | 0.91 | 1250
PD-L2 IgV-Fc I13V, H15Q, R76G, I85F (Fc fusion) | 1.11 | 1530
PD-L2 IgV-Fc H15Q, C23S, I86T (Fc fusion) | 1.34 | 1850
PD-L2 IgV-Fc H15Q, S67L, R76G, I85F (Fc fusion) | 0.96 | 1320
PD-L2 IgV-Fc Q82R, V89D (Fc fusion) | 1.17 | 1620
PD-L2 IgV-Fc H15Q, T47A, H69L, Q82R, V89D (Fc fusion) | 1.26 | 1730
PD-L2 IgV-Fc H15Q, R76G, I85F (SEQ ID NO 1505) (Fc fusion) | 1.04 | 1440
PD-L2 IgV-Fc I13V, S39I, E44D, Q82R, V89D (Fc fusion) | 0.68 | 936
PD-L2 IgV-Fc H15Q, S67L, R76G (Fc fusion) | 1.04 | 1430
PD-L2 IgV-Fc I13V, H15Q, T47A, S67L, Q72H, R76G, Q82R, V89D (Fc fusion) | 1.13 | 1560
PD-L2 IgV-Fc H15Q, T47A, Q72H, R76G (Fc fusion) | 1.06 | 1460
PD-L2 IgV-Fc I13V, H15Q, T47A, E58G, S67L, Q82R, V89D (Fc fusion) | 0.61 | 836
PD-L2 IgV-Fc I13V, H15Q, V89D (Fc fusion) | 0.82 | 1120
PD-L2 IgV-Fc I13V, Q72H, R76G, I86T (Fc fusion) | 1.42 | 1950

Substance | Fold increase over wildtype PD-L2 IgV-Fc, MLR IFN gamma [fold] | IFN gamma levels pg/mL, MLR [pg/mL]
PD-L2 IgV-Fc V89D (Fc fusion) | 0.85 | 1170
PD-L2 IgV-Fc H15Q, T47A, Q72H, R76G, I86T (Fc fusion) | 1.16 | 1600
PD-L2 IgV-Fc H15Q, Q72H, Q74R, R76G, I86T (Fc fusion) | 0.68 | 934
PD-L2 IgV-Fc S67L, I86T (Fc fusion) | 0.74 | 1020
PD-L2 IgV-Fc H15Q, L33H, S67L, R76G, Q82R, V89D (Fc fusion) | 1.09 | 1500
PD-L2 IgV-Fc H15Q, S67L, I86T (Fc fusion) | 0.75 | 1030
PD-L2 IgV-Fc E59G, Q82R (Fc fusion) | 1.1 | 1510
PD-L2 IgV-Fc I13V, H15Q, S39I, E44D, S67L (Fc fusion) | 0.91 | 1260
PD-L2 IgV-Fc I13V, H15Q, E44V, T47A, Q82R, V89D (Fc fusion) | 0.92 | 1270
PD-L2 IgV-Fc H15Q, N18D, T47A, Q72H, V73A, R76G, I86T, V89D (Fc fusion) | 0.77 | 1070
PD-L2 IgV-Fc H15Q, Q82R, V89D (Fc fusion) | 0.79 | 1080
Full length ECD of PD-L2 (ligand) | – | 1170
PD-L2 IgV-Fc I13V, H15Q, T47A, Q82R, V89D (SEQ ID NO 1544) (Fc fusion) | 1.05 | 1450
PD-L2 IgV-Fc H15Q, V89D (Fc fusion) | 1.09 | 1500
PD-L2 IgV-Fc H15Q, N24S, T47A, Q72H, R76G, V89D (Fc fusion) | 0.79 | 1090
PD-L2 IgV-Fc I12V, I13V, H15Q, T47A, Q82R, V89D (Fc fusion) | 1.11 | 1530
PD-L2 IgV-Fc H15Q, S67L, Q72H, R76G, V89D (Fc fusion) | 0.77 | 1060
PD-L2 IgV-Fc H15Q, T47A (Fc fusion) | 1.19 | 1640
PD-L2 IgV-Fc I13V, H15Q, S67L, I86T (Fc fusion) | 0.74 | 1010
PD-L2 IgV-Fc I13V, H15Q, Q82R, V89D (Fc fusion) | 1.16 | 1600
PD-L2 IgV-Fc H15Q, S39I, E44D, Q72H, V75G, R76G, Q82R, V89D (Fc fusion) | 0.68 | 941
PD-L2 IgV-Fc I13V, S67L, V89D (Fc fusion) | 0.63 | 868
